This note sets out measurements from patent publication US20140147384A1 (NORDIC NANOVECTOR, published 2014).

The target of experiment [1] is CD20 on living lymphoma cells (Raji, Rael, Daudi) (UniProt P11836). As to the kind of experiment: immunoreactive fraction, modified Lindmo method on lymphoma cells; 1 experiment.
The target is the same in experiment [2]. As to the kind of experiment: immunoreactive fraction, modified Lindmo method on lymphoma cells; mean ± SD of 6 experiments.
For experiment [3] the target is unchanged. Nature of the experiment: ^125I-labeled antibody on Raji cells, one-step curve fit of specific binding against time and concentration.
For experiment [4] the target is unchanged. Nature of the experiment: ^125I-labeled antibody on Rael cells, one-step curve fit of specific binding against time and concentration.
Experiment [5] has as its target T1, human CD37 on living lymphoma cells (Raji, Rael, Daudi) (human, UniProt P11049 1-281).
T1 construct: whole, on cells; Target of HH1 and of the three bought anti-CD37 antibodies on cell lines; also called CD37 antigen
T1 sequence (looked up): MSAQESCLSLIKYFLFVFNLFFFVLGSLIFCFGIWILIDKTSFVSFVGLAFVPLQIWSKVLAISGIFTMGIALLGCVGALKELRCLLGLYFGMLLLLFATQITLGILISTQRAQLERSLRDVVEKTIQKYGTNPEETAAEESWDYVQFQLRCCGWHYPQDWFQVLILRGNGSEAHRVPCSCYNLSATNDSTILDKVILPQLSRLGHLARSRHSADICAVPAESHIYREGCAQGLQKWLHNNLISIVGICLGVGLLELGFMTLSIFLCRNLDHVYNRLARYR
The description is as above. As to the method:
(§1) The association rate constant, kₐ, the equilibrium dissociation constant, Kd, and the mean number of binding sites, Bₘₐₓ, was determined by a one-step curve fitting method (Dahle et al. 2007). The binding parameters were measured for HH1 and rituximab and for three different lymphoma cell lines; Raji, Rael and Daudi cells (Table 2). Specific binding was measured as a function of time and antibody concentration, and the solution of the differential equation describing the net rate of formation of the antigen-antibody complex was fitted to the experimental data points using the association rate constant, kₐ, the equilibrium dissociation constant, Kd, and the mean number of binding sites, Bₘₐₓ, as parameters. Five million cells pr ml were used, four concentrations of ¹²⁵I-labeled antibody (100 ng/ml, 1000 ng/ml, 5000 ng/ml and 10000 ng/ml) and 7 incubation time points (5 min, 10 min, 20 min, 30 min, 1 h, 1.5 h and 2 h). After incubation, cells were washed twice with PBS, and then counted in a gamma counter.

In experiment [6] the target is T1, human CD37 on living lymphoma cells …. Nature of the experiment: ^125I-labeled antibody on Daudi cells, one-step curve fit of specific binding against time and concentration. As to the method: as §1
Experiment [7] shares this target. Nature of the experiment: ^125I-labeled antibody on Raji cells, one-step curve fit of specific binding against time and concentration. As to the method: as §1

Usually Kd stands for the free concentration of one partner at which half of the binding sites on the other are occupied at equilibrium, for simple one-to-one binding.

Sequence of CD20 on living lymphoma cells (Raji, Rael, Daudi) (P11836 whole entry): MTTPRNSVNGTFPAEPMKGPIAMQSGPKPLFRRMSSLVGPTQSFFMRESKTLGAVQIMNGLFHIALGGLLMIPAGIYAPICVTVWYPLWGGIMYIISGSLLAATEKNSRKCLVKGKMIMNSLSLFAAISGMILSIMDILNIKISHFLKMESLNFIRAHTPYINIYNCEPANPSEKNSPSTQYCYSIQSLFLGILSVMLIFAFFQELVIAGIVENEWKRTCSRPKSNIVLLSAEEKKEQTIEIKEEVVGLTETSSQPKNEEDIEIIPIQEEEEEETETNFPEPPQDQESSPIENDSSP

On to ^111In-rituximab (antibody), for which, in experiment [1], the IRF (%) was 45%.
In experiment [2], ^125I-rituximab (antibody) registered an IRF (%), mean of 62%. In experiment [3], this molecule came in with a Bmax(Ag/cell) of 272000 Ag/cell and a Kd of 4.8 nM. In experiment [4], the Bmax(Ag/cell) was 626000 Ag/cell and the Kd came to 12 nM.
For ^177Lu-rituximab (antibody), the IRF (%) in experiment [1] is 60%.

B1: ^125I-labeled HH1 (antibody, V domains shown)
VH: EIQLQQSGPELVKPGASVKVSCKASGYSFTDYNMYWVKQSHGKSLEWIGYIDPYNGDTTYNQKFKGKATLTVDKSSSTAFIHLNSLTSEDSAVYYCARSPYGHYAMDYWGQGTSVTVSS
VL: DIVMTQSHKLLSTSVGDRVSITCKASQDVSTAVDWYQQKPGQSPKLLINWASTRHTGVPDRFTGSGSGTDYTLTISSMQAEDLALYYCRQHYSTPFTFGSGTKLEIK
modifications: ^125I by indirect iodination with IODOGEN tubes; chain and residues not stated
In the case of B1, the results for the Kd in experiment [5], in experiment [6] and in experiment [7] were 12.7 nM, 2.7 nM and 6.3 nM, respectively.
